Results published in patent US4774321A, “DP100 EGF and insulin-binding protein from Drosophila cells” (Massachusetts Institute of Technology, priority 1986, dated 1988).
Like-named read-outs stand apart in the source and are kept apart here. Values belong to the substance of their own block, whether it stands above or below them.

Experiments:
dp100 [1] = biological target: T1, dp100 (Drosophila melanogaster, UniProt P22817); assay: Competitive affinity labelling of immunoprecipitated dp100 with 125I-insulin as label; assay type: binding; conditions: for Kd: competition with 125I-insulin
T1 construct: detergent-solubilized membranes from Drosophila-cultured cell lines are immunoprecipitated with anti-EGF receptor antiserum; endogenous in cells; host or cells: Drosophila Schneider L2 and Kc cells (solubilized membrane or cytoplasmic protein, immunoprecipitated)
T1 sequence (P22817 1-990): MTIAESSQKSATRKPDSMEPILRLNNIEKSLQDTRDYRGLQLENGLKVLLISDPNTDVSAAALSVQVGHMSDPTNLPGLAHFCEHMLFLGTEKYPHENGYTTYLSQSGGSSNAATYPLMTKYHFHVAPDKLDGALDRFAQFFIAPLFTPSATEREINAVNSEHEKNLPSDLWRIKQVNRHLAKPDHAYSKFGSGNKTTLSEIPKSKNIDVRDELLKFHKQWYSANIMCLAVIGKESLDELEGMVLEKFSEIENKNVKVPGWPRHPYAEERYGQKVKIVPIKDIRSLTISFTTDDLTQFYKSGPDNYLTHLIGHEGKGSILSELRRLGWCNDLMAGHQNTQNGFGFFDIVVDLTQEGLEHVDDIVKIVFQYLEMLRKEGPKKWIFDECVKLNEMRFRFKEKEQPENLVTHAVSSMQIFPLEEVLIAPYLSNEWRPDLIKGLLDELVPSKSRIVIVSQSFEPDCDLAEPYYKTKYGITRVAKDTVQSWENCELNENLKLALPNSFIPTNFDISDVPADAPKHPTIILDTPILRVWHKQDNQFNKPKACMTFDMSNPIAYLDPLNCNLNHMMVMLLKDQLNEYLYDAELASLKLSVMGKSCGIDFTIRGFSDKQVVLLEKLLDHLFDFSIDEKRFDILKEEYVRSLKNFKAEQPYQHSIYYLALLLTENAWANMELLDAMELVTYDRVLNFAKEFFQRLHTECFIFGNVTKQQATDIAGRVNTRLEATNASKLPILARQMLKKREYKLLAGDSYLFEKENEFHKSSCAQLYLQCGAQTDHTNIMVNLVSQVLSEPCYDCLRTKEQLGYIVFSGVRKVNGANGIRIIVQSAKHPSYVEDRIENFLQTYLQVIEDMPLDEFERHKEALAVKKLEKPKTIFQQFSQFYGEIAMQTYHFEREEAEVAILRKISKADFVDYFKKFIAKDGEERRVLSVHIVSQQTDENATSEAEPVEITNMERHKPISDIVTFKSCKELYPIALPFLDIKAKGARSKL
Method: Affinity Labeling of Immunoprecipitates: The dp100 protein is found in the membranes and cytoplasm of the Drosophila cells. Membrane protein is solubilized in 1 to 2% Triton X-100, 10% glycerol, 50 mM Hepes, pH 7.0, for 60 min at 4° C. Typically, 500 microgram of Drosophila membrane protein or 100 microgram of Swiss 3T3 membrane protein are used per sample. Unsolubilized material is removed by centrifugation at 12,000 x g for 10 min. The solublized membrane protein or cytoplasmic protein is diluted 1:2 and precleared by incubation with protein A-Sepharose beads (Pharmacia Fine Chemical Co., Piscataway, NJ). […] The immunopellets are washed three times with 50 mM Hepes, pH 7.0, 50 mM NaCl, 10% glycerol, 0.1% Triton X-100 and resuspended in 25 mM Hepes, 50 mM NaCl, 0.1% Triton X-100, 1 mg of bovine serum albumin per ml. […] Binding specificity is tested by the simultaneous addition of a 1000-fold excess of unlabeled ligand (30 microM) and labeled ligand. Bound growth factor is crosslinked to the immunoprecipitates by addition of disuccinimidyl suberate to 0.4 mM and incubation for 15 min at 0° C. The samples are then centrifuged and the supernatant removed. The pellets are resuspended in sample buffer (33 mM Tris.HCl, pH 6.5, 2% NaDodS04, 10% glycerol, 0.1% bromophenol blue, 2% 2-mercaptoethanol) and boiled. The protein A-Sepharose beads are removed by centrifugation, and the supernatants run on 6.5% polyacrylamide/NaDodS04 gels.
To ensure linearity, several exposures are taken. Dissociation constants are determined by statistical analysis.
The dissociation constants ranged from 10^-6 M to 10^-9 M.

dp100 [2] = biological target: T1, dp100; assay: Affinity labelling of anti-EGF receptor immunoprecipitates (dp100) with 125I-labelled growth factors; assay type: binding; conditions: for affinity labelling (crosslinking) of dp100 by 125I-labelled ligand: disuccinimidyl suberate crosslinking, immunoprecipitates
Method: (§1) Affinity Labeling of Immunoprecipitates: The dp100 protein is found in the membranes and cytoplasm of the Drosophila cells. Membrane protein is solubilized in 1 to 2% Triton X-100, 10% glycerol, 50 mM Hepes, pH 7.0, for 60 min at 4° C. Typically, 500 microgram of Drosophila membrane protein or 100 microgram of Swiss 3T3 membrane protein are used per sample. Unsolubilized material is removed by centrifugation at 12,000 x g for 10 min. The solublized membrane protein or cytoplasmic protein is diluted 1:2 and precleared by incubation with protein A-Sepharose beads (Pharmacia Fine Chemical Co., Piscataway, NJ). The cleared supernatants are treated overnight with anti-EGF receptor antiserum (1:10 dilution), anti-insulin receptor antiserum (1:50), or rabbit preimmune serum (1:10), and the product precipitated with protein A-Sepharose beads. The immunopellets are washed three times with 50 mM Hepes, pH 7.0, 50 mM NaCl, 10% glycerol, 0.1% Triton X-100 and resuspended in 25 mM Hepes, 50 mM NaCl, 0.1% Triton X-100, 1 mg of bovine serum albumin per ml. 125I-EGF (35 nM) or 125I-insulin (20 nM) is added, and the samples incubated 60 min at 15° C. Binding specificity is tested by the simultaneous addition of a 1000-fold excess of unlabeled ligand (30 microM) and labeled ligand. Bound growth factor is crosslinked to the immunoprecipitates by addition of disuccinimidyl suberate to 0.4 mM and incubation for 15 min at 0° C. The samples are then centrifuged and the supernatant removed. The pellets are resuspended in sample buffer (33 mM Tris.HCl, pH 6.5, 2% NaDodS04, 10% glycerol, 0.1% bromophenol blue, 2% 2-mercaptoethanol) and boiled. The protein A-Sepharose beads are removed by centrifugation, and the supernatants run on 6.5% polyacrylamide/NaDodS04 gels.
To increase sensitivity of detection, detergent-solubilized membranes from Drosophila-cultured cell lines are immunoprecipitated with anti-EGF receptor antiserum, anti-insulin receptor antiserum, or rabbit preimmune serum prior to affinity labeling. Radiolabeled growth factors are added to the immune precipitates in the presence or absence of excess growth factor, allowed to bind at 15° C., and then crosslinked with disuccinimidyl suberate. Samples are analyzed by separation on NaDodSO4 /PAGE and subsequent autoradiography. […] However, the anti-EGF receptor antiserum does specifically immunoprecipitate dp100. Similar results are observed when membrane proteins from two different Drosophila cell lines, Schneider L2 and Kc, are analyzed.
Controls with preimmune serum fail to immunoprecipitate dp100 or any other growth factor binding protein.

dp100 [3] = biological target: T1, dp100; assay: Affinity labelling of intact Drosophila membranes; assay type: binding
[4] = biological target: T2, EGF receptor in human epithelial carcinoma A431 cells (Homo sapiens, UniProt P00533); assay: Competition with 125I-EGF for binding to the EGF receptor in A431 cells; conditions: 4° C., 3 hr, FIG. 2
T2 construct: endogenous in cells; host or cells: A431 cells (American Type Culture Collection)
Method: FIG. 2 is a graph of the competitive binding of murine EGF and synthetic human TGF-alpha to the EGF receptor in A431 cells. ^125 I-EGF (10^5 cpm) was incubated with A431 cells (2×10^4 cells/well) at 4° C. for 3 hr in the presence of different M concentrations of unlabelled EGF ( ) or TGF-alpha ( ). The percent of binding as compared to the control is the mean of duplicate determinations with the error less than 10%.
Growth factor binding to A431 cells: A431 cells are grown in monolayer and ^125 I-labelled EGF bound to the cells as described by B. Friedman et al in Proc. Natl. Acad. Sci. U.S.A. 81, 3034-3039 (1984).
To ensure that the difference in the binding affinities of EGF and TGF-alpha for dp100 reflects a property of the protein rather than the particular growth factor preparations, the ability of unlabelled EGF and TGF-alpha to compete with ^125 I-labelled EGF for binding to the EGF receptor in human epithelial carcinoma A431 cells was determined.

170 kDa EGF receptor = biological target: T3, 170 kDa EGF receptor (Mus musculus, UniProt Q01279); assay: Affinity labelling of EGF receptor immunoprecipitated from murine 3T3 fibroblast membranes; assay type: binding
T3 construct: 170 kDa EGF receptor immunoprecipitated from murine 3T3 fibroblast membranes; endogenous in cells; host or cells: Swiss 3T3 mouse fibroblasts (solubilized membranes, immunoprecipitated)
Method: as §1, with “Binding specificity is tested by the simultaneous addition of a 1000-fold excess of unlabeled ligand (30 microM) and labeled ligand. Bound growth factor is crosslinked to the immunoprecipitates by addition of disuccinimidyl suberate to 0.4 mM and incubation for 15 min at 0° C. The samples are then centrifuged and the supernatant removed. The pellets are resuspended in sample buffer (33 mM Tris.HCl, pH 6.5, 2% NaDodS04, 10% glycerol, 0.1% bromophenol blue, 2% 2-mercaptoethanol) and boiled. The protein A-Sepharose beads are removed by centrifugation, and the supernatants run on 6.5% polyacrylamide/NaDodS04 gels.” left out
The dp100 has a higher affinity for insulln than EGF. First, in crosslinking experiments with membranes, binding of ^125 I-insulin but not ^125 I-EGF is detected.

[5] = read-out: dissociation constant (Kd) for binding to dp100
[6] = densitometric scanning of autoradiograms, read-out: Dissociation constants for ligand binding to dp100, KD

Substance: glucagon: glucagon (Sigma Chemical Co.)
- Kd (dp100 [1]; [5]): > 1000 nM

- Kd (dp100 [1]; [5]): > 1000 nM
Substance: NGF: Nerve growth factor

Substance: native TGF-alpha: native transforming growth factor-alpha
- affinity for dp100 compared with recombinant TGF-alpha (dp100 [1]; FIG. 3): within the same order of magnitude as the recombinant form

Substance: INSULIN: porcine insulin from Biomedical Technologies Inc.
- inhibition of 125I-insulin and 125I-EGF binding to dp100, comparison of unlabeled ligands (dp100 [2]; competition with unlabeled ligand): more effective than EGF
- affinity labelling (crosslinking) of dp100 by 125I-labelled ligand (dp100 [2]): can be affinity labelled
- blocking of 125I-insulin and 125I-EGF binding to dp100 by excess unlabeled ligand (dp100 [2]): can block binding
- affinity labelling by 125I-ligand after incubation with intact Drosophila membranes (dp100 [3]): can be detected

- affinity for dp100 relative to that for EGF (dp100 [1]): three orders of magnitude higher
- affinity for dp100 relative to human recombinant TGF-alpha (dp100 [1]; FIG. 3): 100-1000 times
- Kd (dp100 [1]; [6]): 5 nM
- Kd (dp100 [1]; [5]): 5 nM
- affinity labelling (crosslinking) of dp100 by 125I-labelled ligand (dp100 [2]): can be affinity labelled
- affinity for the mammalian EGF receptor, EGF versus TGF-alpha preparations [4]: no significant difference
Substance: TGF-alpha: Synthetic human transforming growth factor-alpha, synthesized chemically (J. Tam, Rockefeller University)

Substance: IGF-I: insulin-like growth factor-I (Amgen)
- Kd (dp100 [1]; [6]): 500 nM
- affinity labelling (crosslinking) of dp100 by 125I-labelled ligand (dp100 [2]): can be affinity labelled

- Kd (dp100 [1]; [6]): 1300 nM
- affinity labelling (crosslinking) of dp100 by 125I-labelled ligand (dp100 [2]): can be affinity labelled
- blocking of 125I-insulin and 125I-EGF binding to dp100 by excess unlabeled ligand (dp100 [2]): can block binding
- affinity for the mammalian EGF receptor, EGF versus TGF-alpha preparations [4]: no significant difference
- affinity labelling by 125I-ligand after incubation with intact Drosophila membranes (dp100 [3]): is not detected
- blocking of 125I-EGF affinity labeling of the murine EGF receptor by excess ligand (170 kDa EGF receptor; excess unlabeled ligand): can be blocked by excess EGF
- crosslinking of 125I-ligand to the 170 kDa EGF receptor (170 kDa EGF receptor; immunoprecipitated by anti-EGF receptor antiserum): can be crosslinked
Substance: EGF: murine epidermal growth factor, receptor grade and HPLC purified
- affinity for dp100 compared with recombinant TGF-alpha (dp100 [1]; FIG. 3): within the same order of magnitude as the recombinant form

Substance: PDGF
- affinity labelling (crosslinking) of dp100 by 125I-labelled ligand (dp100 [2]): neither ^125 I-TGF-beta nor ^125 I-PDGF, two structurally unrelated growth factors, can be crosslinked

Substance: TGF-beta: 125I-TGF-beta, structurally unrelated growth factor
- affinity labelling (crosslinking) of dp100 by 125I-labelled ligand (dp100 [2]): neither ^125 I-TGF-beta nor ^125 I-PDGF, two structurally unrelated growth factors, can be crosslinked
